In US20100260776A1:

Biological target: KDR (VEGF receptor, flk-1/KDR, VEGFR2) (human) (UniProt P35968)
Assay: in vitro receptor saturation; format not stated

IMC-1C11 (antibody)
concentration at 50% saturation of VEGF receptors: 0.2 µg/mL | concentration at 100% saturation of VEGF receptors: 3 µg/mL
